The values below come from patent publication US20020082409A1.

Assay in all cases: cell-based or functional assay
The target of assay [1] is recombinant CRH R2-alpha expressed in 293T cells (UniProt Q13324).
Assay [2] deals with recombinant CRH R2 beta expressed in 293T cells (UniProt Q13324).
In assay [3] the target is recombinant CRH R2 expressed in 293T cells (isoform not stated, Fig. 3f), Q13324.

Ends that are not written are not given here.

Sequence of recombinant CRH R2 expressed in 293T cells (isoform not stated, Fig. 3f), Q13324 (Q13324 20-411): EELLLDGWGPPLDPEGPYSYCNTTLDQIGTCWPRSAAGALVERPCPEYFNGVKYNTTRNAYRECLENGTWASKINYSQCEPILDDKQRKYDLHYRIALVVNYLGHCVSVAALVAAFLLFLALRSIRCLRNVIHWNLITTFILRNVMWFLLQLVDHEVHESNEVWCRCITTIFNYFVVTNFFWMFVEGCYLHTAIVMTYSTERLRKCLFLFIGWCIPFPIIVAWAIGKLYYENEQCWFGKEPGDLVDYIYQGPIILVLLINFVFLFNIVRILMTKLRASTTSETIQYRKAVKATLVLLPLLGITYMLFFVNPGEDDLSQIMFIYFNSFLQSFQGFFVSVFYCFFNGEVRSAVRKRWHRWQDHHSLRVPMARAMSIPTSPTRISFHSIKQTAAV

“stresscopin 1 (full-length 43-amino-acid mature peptide, synthetic, amidated)”: the potency in cAMP production, compared to stresscopin 2 and the pufferfish peptide in assay [1] and in assay [2] was over 10 fold throughout.

B1: SCP1-NA, full-length stresscopin 1 devoid of amidation at the C-terminus (peptide)
peptide: HPGSRIVLSLDVILGLLQILLEQARARAAREQATTNARILARV-OH
As to B1, the reduction in ability to stimulate cAMP production, against amidated stresscopin 1 in assay [3] is over 50 fold.
